According to patent US20260250318A1, “COMPOSITIONS AND METHODS FOR CROSSING THE BLOOD BRAIN BARRIER” (VOYAGER THERAPEUTICS, INC., priority 2022, published 2026):

Experiments:
[1] = target: T1, human ALPL expressed on cells (alkaline phosphatase tissue-nonspecific isozyme, NM_000478.4) (human, UniProt P05186 18-501); test: binding/internalization: AAV incubated 2 or 3 h with ALPL transfected HEK 293T cells, washed, viral genomes quantified
T1 construct: also called ALPL receptor; human ALPL protein (NM_000478.6)
T1 sequence: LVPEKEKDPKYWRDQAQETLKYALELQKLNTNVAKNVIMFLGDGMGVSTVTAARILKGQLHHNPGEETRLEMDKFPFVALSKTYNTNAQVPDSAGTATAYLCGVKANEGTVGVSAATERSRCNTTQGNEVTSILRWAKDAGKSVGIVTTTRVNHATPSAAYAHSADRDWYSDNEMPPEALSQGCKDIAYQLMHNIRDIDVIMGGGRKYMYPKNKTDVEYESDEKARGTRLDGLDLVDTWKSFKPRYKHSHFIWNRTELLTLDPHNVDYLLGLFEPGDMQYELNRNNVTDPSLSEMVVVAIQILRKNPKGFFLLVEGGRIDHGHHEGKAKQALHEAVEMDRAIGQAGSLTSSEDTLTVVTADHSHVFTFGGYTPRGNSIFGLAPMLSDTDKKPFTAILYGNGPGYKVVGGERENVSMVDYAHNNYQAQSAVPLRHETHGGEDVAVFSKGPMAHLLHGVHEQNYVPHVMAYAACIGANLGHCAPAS

[2] = test system: mouse cells derived from the midbrain area; test: scRNA-Seq and IHC of midbrain cells transduced by TTM-002; type: in vivo, SCID CB17 mice; details: for % GFP Cells/Cluster: AAV_TTM-002.GFP particles, GFP sorted midbrain cells; for % GFP Cells/Cluster / % Payload Cells/Cluster: 28 days; for % Payload Cells/Cluster: AAV_TTM-002.payload particles, midbrain scRNA-Seq
Experimental: AAV particles were generated with the TTM-002 capsid variant encapsulating a GFP transgene (AAV_TTM-002.GFP) or a payload driven by a heterologous CBA constitutive promoter (AAV_TTM-002.Payload).
Two tandem single cell RNA sequencing runs (scRNA-Seq) of mouse cells derived from the midbrain area were performed. In the first run, cells were pooled from two mice at day 28 post treatment with AAV_TTM-002.Payload particles. In the second run we treated with AAV_TTM-002.GFP particles, in the same manner but without xenografts. Orthotopic xenografts of MDA-MB-361-Luc #1 high passage cells grown as tumorspheres (in tumorsphere media; Sigma #C-28070) were injected (250,000 cells/2 μL/mouse) intracranially into 2-month old female SCID CB17 (Mutation: Icr-Prkdcscid/IcrIcoCrl) congenic immunodeficient mice (Charles River Laboratories). The injections were 2.5 mm (lateral),-1 mm (posterior) with respect to bregma, lowered-3 mm ventral and raised +0.5 mm dorsal to a final-2.5 mm ventral position. Two days later, dilutions of the AAV_TTM-002.Payload particles (run 1), or in the case without xenografts, dilutions of AAV_TTM-002.GFP particles (run 2) were prepared. IV injections of 100 μL (2.5e11 VG/animal) of the AAV_TTM-002.payload particles or AAV_TTM-002.GFP particles were administered through the tail veins of mice (n=5 mice per groups). At 7 days post-injection, mice from run 1 were imaged in an AmiHTX (Spectral Imager) for bioluminescence of the human tumor cells due to expression of luciferase in response to intraperitoneal luciferin injections.
At 28 days post-injection with the AAV_TTM-002.payload particles or AAV_TTM-002.GFP particles, two mice from each run were necropsied, brain samples were isolated, and the midbrain was dissected and isolated. The midbrain samples were then exposed to a cold protease inhibitor (Creative Biomart #NATE-0633) and were dissociated at 6 degrees centigrade. For the samples collected from the mice of run 1 (AAV_TTM-002.Payload particles), myelin depletion was performed (Miltenyi, #130-096-731), cells were filtered through a […] mesh to filter out neurons) and loaded on a 10X chromium G chip. scRNA-Seq was performed (10X Genomics) and samples were sequenced on a NextGen500 Sequencing machine (Illumina). For the samples collected from run 2 (AAV_TTM-002.GFP particles and no xenografts), the cells were not myelin depleted or filtered through […] mesh to include neurons. The cells isolated after run 2 were FACS sorted for GFP+/7AAD− (live GFP+ cells). The resultant cells were loaded on a 10× chromium G chip and the scRNA-Seq was run and processed (10× Genomics).
For run 1, the scRNA-Seq data was filtered to include cells with only greater than 1000 genes per cell and less than 5000, and less than 20 percent mitochondrial gene expression. For run 2, the scRNA-Seq data was filtered to include cells with only greater than 200 genes per cell and less than 5000, and less than 20 percent mitochondrial gene expression. The data were normalized, scaled, and integrated into one combined dataset. Clusters were generated with a resolution of 0.3 and each cluster identity was determined using a panel of cell type specific genes (e.g., as described in Brown et al., 2021. “Deep Parallel Characterization of AAV Tropism and AAV-Mediated Transcriptional Changes via Single-Cell RNA Sequencing”. Front. Immunol. 12:730825; the contents of which are hereby incorporated by reference in its entirety). The percentage of GFP sorted cells per cluster was calculated as was the percentage of payload expressing genes per cluster as parallel measures of TTM-002 transduction.

[3] = cluster Vascular smooth muscle cells (VSC)

B1: TTM-002 capsid variant (AAV particle comprising the TTM-002 AAV9 capsid variant) (other)
chain 1: MAADGYLPDWLEDNLSEGIREWWALKPGAPQPKANQQHQDNARGLVLPGYKYLGPGNGLDKGEPVNAADAAALEHDKAYDQQLKAGDNPYLKYNHADAEFQERLKEDTSFGGNLGRAVFQAKKRLLEPLGLVEEAAKTAPGKKRPVEQSPQEPDSSAGIGKSGAQPAKKRLNFGQTGDTESVPDPQPIGEPPAAPSGVGSLTMASGGGAPVADNNEGADGVGSSSGNWHCDSQWLGDRVITTSTRTWALPTYNNHLYKQISNSTSGGSSNDNAYFGYSTPWGYFDFNRFHCHFSPRDWQRLINNNWGFRPKRLNFKLFNIQVKEVTDNNGVKTIANNLTSTVQVFTDSDYQLPYVLGSAHEGCLPPFPADVFMIPQYGYLTLNDGSQAVGRSSFYCLEYFPSQMLRTGNNFQFSYEFENVPFHSSYAHSQSLDRLMNPLIDQYLYYLSKTINGHDSPHKSGQNQQTLKFSVAGPSNMAVQGRNYIPGPSYRQQRVSTTVTQNNNSEFAWPGASSWALNGRNSLMNPGPAMASHKEGEDRFFPLSGSLIFGKQGTGRDNVDADKVMITNEEEIKTTNPVATESYGQVATNHQSAQAQAQTGWVQNQGILPGMVWQDRDVYLQGPIWAKIPHTDGNFHPSPLMGGFGMKHPPPQILIKNTPVPADPPTAFNKDKLNSFITQYSTGQVSVEIEWELQKENSKRWNPEIQYTSNYYKSNNVEFAVNTEGVYSEPRPIGTRYLTRNL
chain 2: TAPGKKRPVEQSPQEPDSSAGIGKSGAQPAKKRLNFGQTGDTESVPDPQPIGEPPAAPSGVGSLTMASGGGAPVADNNEGADGVGSSSGNWHCDSQWLGDRVITTSTRTWALPTYNNHLYKQISNSTSGGSSNDNAYFGYSTPWGYFDFNRFHCHFSPRDWQRLINNNWGFRPKRLNFKLFNIQVKEVTDNNGVKTIANNLTSTVQVFTDSDYQLPYVLGSAHEGCLPPFPADVFMIPQYGYLTLNDGSQAVGRSSFYCLEYFPSQMLRTGNNFQFSYEFENVPFHSSYAHSQSLDRLMNPLIDQYLYYLSKTINGHDSPHKSGQNQQTLKFSVAGPSNMAVQGRNYIPGPSYRQQRVSTTVTQNNNSEFAWPGASSWALNGRNSLMNPGPAMASHKEGEDRFFPLSGSLIFGKQGTGRDNVDADKVMITNEEEIKTTNPVATESYGQVATNHQSAQAQAQTGWVQNQGILPGMVWQDRDVYLQGPIWAKIPHTDGNFHPSPLMGGFGMKHPPPQILIKNTPVPADPPTAFNKDKLNSFITQYSTGQVSVEIEWELQKENSKRWNPEIQYTSNYYKSNNVEFAVNTEGVYSEPRPIGTRYLTRNL
chain 3: MASGGGAPVADNNEGADGVGSSSGNWHCDSQWLGDRVITTSTRTWALPTYNNHLYKQISNSTSGGSSNDNAYFGYSTPWGYFDFNRFHCHFSPRDWQRLINNNWGFRPKRLNFKLFNIQVKEVTDNNGVKTIANNLTSTVQVFTDSDYQLPYVLGSAHEGCLPPFPADVFMIPQYGYLTLNDGSQAVGRSSFYCLEYFPSQMLRTGNNFQFSYEFENVPFHSSYAHSQSLDRLMNPLIDQYLYYLSKTINGHDSPHKSGQNQQTLKFSVAGPSNMAVQGRNYIPGPSYRQQRVSTTVTQNNNSEFAWPGASSWALNGRNSLMNPGPAMASHKEGEDRFFPLSGSLIFGKQGTGRDNVDADKVMITNEEEIKTTNPVATESYGQVATNHQSAQAQAQTGWVQNQGILPGMVWQDRDVYLQGPIWAKIPHTDGNFHPSPLMGGFGMKHPPPQILIKNTPVPADPPTAFNKDKLNSFITQYSTGQVSVEIEWELQKENSKRWNPEIQYTSNYYKSNNVEFAVNTEGVYSEPRPIGTRYLTRNL
**Q.** For B1, which “fold change in viral gene expression (2^-ΔΔCT) relative to pCMV6 transfected cells” value [1] is on record?
**A.** 5.92 fold

B2: TTM-002: AAV9 capsid variant comprising HDSPHK (SEQ ID NO: 2) in loop IV (protein)
chain 1: B1 chain 1
chain 2: GHDSPHKSGQNQQT
**Q.** For B2, which “IHC co-staining of GFP with cell markers” value ([2]; brain samples, AAV_TTM-002.GFP) is on record?
**A.** GFP co-localized with some but not all Olig2+ cells

**Q.** And the “% GFP Cells/Cluster” value ([2]; cluster Astrocyte)?
**A.** 2.37%

**Q.** What about the “% Payload Cells/Cluster” value ([2]; cluster Astrocyte) of the same molecule?
**A.** 4.50%

**Q.** And the “% GFP Cells/Cluster” value ([2]; cluster Committed Oligos-2)?
**A.** 0.00%

**Q.** And the “% Payload Cells/Cluster” value ([2]; cluster Committed Oligos-2)?
**A.** 0.00%

**Q.** And the “% GFP Cells/Cluster” value ([2]; cluster Committed Oligos)?
**A.** 0.00%

**Q.** And the “% Payload Cells/Cluster” value ([2]; cluster Committed Oligos)?
**A.** 1.90%

**Q.** What about the “% GFP Cells/Cluster” value ([2]; cluster Endothelial-1) of the same molecule?
**A.** 3.45%

**Q.** What about the “% Payload Cells/Cluster” value ([2]; cluster Endothelial-1) of the same molecule?
**A.** 3.09%

**Q.** And the “% GFP Cells/Cluster” value ([2]; cluster Endothelial-2)?
**A.** 6.58%

**Q.** And the “% Payload Cells/Cluster” value ([2]; cluster Endothelial-2)?
**A.** 6.58%

**Q.** And the “% GFP Cells/Cluster” value ([2]; cluster Macrophages)?
**A.** 0.00%

**Q.** And the “% Payload Cells/Cluster” value ([2]; cluster Macrophages)?
**A.** 0.00%

**Q.** What about the “% GFP Cells/Cluster” value ([2]; cluster Mature Oligos) of the same molecule?
**A.** 0.00%

**Q.** What about the “% Payload Cells/Cluster” value ([2]; cluster Mature Oligos) of the same molecule?
**A.** 3.85%

**Q.** What about the “% GFP Cells/Cluster” value ([2]; cluster Microglia) of the same molecule?
**A.** 0.00%

**Q.** And the “% Payload Cells/Cluster” value ([2]; cluster Microglia)?
**A.** 0.40%

**Q.** And the “% GFP Cells/Cluster” value ([2]; cluster Oligodendrocytes)?
**A.** 0.00%

**Q.** What about the “% Payload Cells/Cluster” value ([2]; cluster Oligodendrocytes) of the same molecule?
**A.** 0.00%

**Q.** What about the “% GFP Cells/Cluster” value ([2]; cluster Pericytes) of the same molecule?
**A.** 0.77%

**Q.** What about the “% Payload Cells/Cluster” value ([2]; cluster Pericytes) of the same molecule?
**A.** 4.23%

**Q.** And the “% GFP Cells/Cluster” value ([2]; cluster Vascular and leptomeningeal Cells (VLM))?
**A.** 2.38%

**Q.** What about the “% Payload Cells/Cluster” value ([2]; cluster Vascular and leptomeningeal cells (VLM)) of the same molecule?
**A.** 0.00%

**Q.** What about the “% GFP Cells/Cluster” value [2, 3] of the same molecule?
**A.** 1.03%

**Q.** And the “% Payload Cells/Cluster” value [2, 3]?
**A.** 1.72%

**Q.** And the “proportion of payload positive cells per cell type” value ([2]; scRNA-Seq, AAV_TTM-002.Payload, day 28)?
**A.** endothelial cells had the highest proportion of payload positive cells

**Q.** What about the “proportion of GFP positive cells per cell type” value ([2]; scRNA-Seq, GFP+ sorted cells, AAV_TTM-002.GFP, day 28) of the same molecule?
**A.** endothelial cells had the highest proportion of GFP positive cells
